Measurements published in patent publication US20230212554A1 (published 2023).

Assays:
Experiment in all cases: ELISA on recombinant NP
NPA4 [1] = molecular target: T1, NPA4 (influenza A virus …, UniProt A8C8J8 1-489)
NPA1 = molecular target: T2, NPA1 (influenza A virus A/Taiwan/1/72 (H3N2), UniProt P16982 1-489)
T2 chain: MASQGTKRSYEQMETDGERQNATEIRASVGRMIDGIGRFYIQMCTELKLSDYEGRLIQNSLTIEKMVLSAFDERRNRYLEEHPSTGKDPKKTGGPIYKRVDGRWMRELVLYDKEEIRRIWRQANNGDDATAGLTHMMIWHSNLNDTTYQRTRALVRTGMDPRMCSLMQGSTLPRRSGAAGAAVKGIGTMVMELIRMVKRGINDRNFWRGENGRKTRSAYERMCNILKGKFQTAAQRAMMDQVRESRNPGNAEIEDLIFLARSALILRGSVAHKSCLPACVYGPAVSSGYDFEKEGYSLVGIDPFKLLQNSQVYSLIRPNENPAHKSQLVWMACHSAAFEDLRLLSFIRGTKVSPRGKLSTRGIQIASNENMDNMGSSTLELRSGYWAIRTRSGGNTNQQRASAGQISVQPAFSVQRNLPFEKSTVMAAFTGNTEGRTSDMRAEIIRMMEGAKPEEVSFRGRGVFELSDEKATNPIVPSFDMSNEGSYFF

NPA5 = NPA5 (influenza A virus A/Anhui/1/2005 …, UniProt Q6DPE5 1-489)
NPA4 [2] = molecular target: T1, NPA4; remark: listed apart in the source

| Binder | binding result (NPA4 [1]) | EC50 (NPA1) [nM] | EC50 (NPA5) [nM] | EC50 (NPA4 [2]) [nM] |
| --- | --- | --- | --- | --- |
| NP10 (antibody, V domains shown) VH: EVQLVESGGGLVQPGGSLRLSCAASGFTIDNGSIHWVRQAPGKGLEWVAWIWPFGGSTSYADSVKGRFTISADTSKNTAYLQMNSLRAEDTAVYYCARSWSSGYDYWGQGTLVTVSS VL: DIQMTQSPSSLSASVGDRVTITCRASQDVSWSVAWYQQKPGKAPKLLISGSTWLYSGVPSRFSGSGSGTDFTLTISSLQPEDFATYYCQQYSNSPITFGQGTKVEIKR | no binding | 0.36 | 0.28 |  |
| NP13 (antibody, V domains shown) VH: EVQLVESGGGLVQPGGSLRLSCAASGFTINNYGIHWVRQAPGKGLEWVASIGPYGGSTYYADSVKGRFTISADTSKNTAYLQMNSLRAEDTAVYYCARFGYFNWLDMDYWGQGTLVTVSS VL: DIQMTQSPSSLSASVGDRVTITCRASQDVGYWVAWYQQKPGKAPKLLISSASGLYSGVPSRFSGSGSGTDFTLTISSLQPEDFATYYCQQGWDWPITFGQGTKVEIKR |  |  | 0.09 | 0.07 |
| NP15 (antibody, V domains shown) VH: EVQLVESGGGLVQPGGSLRLSCAASGFTISNWYIHWVRQAPGKGLEWVAGIGPYGGSTYYADSVKGRFTISADTSKNTAYLQMNSLRAEDTAVYYCARFHWDHLHGMDYWGQGTLVTVSS VL: DIQMTQSPSSLSASVGDRVTITCRASQDVDNNVAWYQQKPGKAPKLLISYSTGLYSGVPSRFSGSGSGTDFTLTISSLQPEDFATYYCQQYWNYPITFGQGTKVEIKR |  |  |  | 0.35 |
